{"source": "paper PMC10066265", "about": "“Inhibitor-3 inhibits Protein Phosphatase 1 via a metal binding dynamic protein–protein interaction” (Nature Communications, 2023)", "molecules": {"B1": {"name": "SILK_(deletion): I3_(38-68) (Δ27-37) (domain or fragment, human, UniProt O60927 38-68, looked up)", "chain": "EKKVEWTSDTVDNEHMGRRSSKCCCIYEKPR", "notes": "PPP1R11), human, residues 38-68; source: E. coli BL21 (DE3), purified (Ni-NTA, TEV, heat 95 °C, SEC); not shown: His6, N-terminal, cleaved; MBP, N-terminal, cleaved"}, "B2": {"name": "SILK_(deletion): I3_(38-68) (Δ27-37) (domain or fragment, human, UniProt O60927 38-68, looked up)", "chain": "B1 chain", "notes": "PPP1R11), human, residues 38-68; also called SILKdead: I338-68 (Δ27-37); source: E. coli BL21 (DE3), purified (Ni-NTA, TEV cleavage, heat, SEC); not shown: His6, N-terminal, cleaved; MBP, N-terminal, cleaved"}, "B3": {"name": "Inhibitor-3 I3_(1-126) (full-length) (natural protein, human, UniProt O60927 1-126, looked up)", "chain": "MAEAGAGLSETVTETTVTVTTEPENRSLTIKLRKRKPEKKVEWTSDTVDNEHMGRRSSKCCCIYEKPRAFGESSTESDEEEEEGCGHTHCVRGHRKGRRRATLGPTPTTPPQPPDPSQPPPGPMQH", "notes": "PPP1R11), human, 126 aa, residues 1-126; Uniformly 15N-labelled in the NMR experiment, unlabelled in SPR; also called PPP1R11; YPI1; source: E. coli BL21 (DE3), purified (Ni-NTA, TEV, heat 95 °C, SEC); not shown: His6, N-terminal, cleaved; MBP, N-terminal, cleaved"}, "B4": {"name": "I3_(1-126) (FL, full-length) (natural protein, human, UniProt O60927 1-126, looked up)", "chain": "B3 chain", "notes": "PPP1R11), human, 126 aa, residues 1-126; also called PPP1R11; source: E. coli BL21 (DE3), purified (Ni-NTA, TEV cleavage, heat, SEC); not shown: His6, N-terminal, cleaved; MBP, N-terminal, cleaved"}, "B5": {"name": "SILK_(dead): I3_(1-126) T29A/I30A/K31A (natural protein, human, UniProt O60927 1-126, looked up)", "chain": "B3 chain with T29A, I30A, K31A", "notes": "PPP1R11), human, residues 1-126, T29A/I30A/K31A; also called I3_1-126_SLAAA; I3_(1-126) 29AAA31; source: E. coli BL21 (DE3), purified (Ni-NTA, TEV cleavage, heat, SEC); not shown: His6, N-terminal, cleaved; MBP, N-terminal, cleaved"}, "B6": {"name": "SSS: I3_(1-126) C60S/C61S/C62S (natural protein, human, UniProt O60927 1-126, looked up)", "chain": "B3 chain with C60S, C61S, C62S", "notes": "PPP1R11), human, residues 1-126, C60S/C61S/C62S; also called I3_1-126_SSS; I3_(1-126)SSS; source: E. coli BL21 (DE3), purified (Ni-NTA, TEV cleavage, heat, SEC); not shown: His6, N-terminal, cleaved; MBP, N-terminal, cleaved"}, "B7": {"name": "RVxF_(dead): I3_(1-126) 40KAEA43 (natural protein, human, UniProt O60927 1-126, looked up)", "chain": "B3 chain with V41A, W43A", "notes": "PPP1R11), human, residues 1-126, 40KVEW43 mutated to 40KAEA43; also called I3_1-126_KAEA; I3_(RAXA); source: E. coli BL21 (DE3), purified (Ni-NTA, TEV cleavage, heat, SEC); not shown: His6, N-terminal, cleaved; MBP, N-terminal, cleaved"}, "B8": {"name": "RVxF_(dead): I3_(1-126) 40KAEA43 (natural protein, human, UniProt O60927 1-126, looked up)", "chain": "B3 chain with V41A, W43A", "notes": "PPP1R11), human, residues 1-126; Uniformly 15N-labelled in the NMR experiment, unlabelled in SPR; also called I3_(RAXA) variant; I3 RVxF_(dead); source: E. coli BL21 (DE3), purified (Ni-NTA, TEV, heat 95 °C, SEC); not shown: His6, N-terminal, cleaved; MBP, N-terminal, cleaved"}, "B9": {"name": "SSS: I3_(1-126) C60S/C61S/C62S (natural protein, human, UniProt O60927 1-126, looked up)", "chain": "B3 chain with C60S, C61S, C62S", "notes": "PPP1R11), human, residues 1-126; also called I3_(1-126)SSS; source: E. coli BL21 (DE3), purified (Ni-NTA, TEV, heat 95 °C, SEC); not shown: His6, N-terminal, cleaved; MBP, N-terminal, cleaved"}, "B10": {"name": "SILK_(dead): I3_(1-126) T29A/I30A/K31A (natural protein, human, UniProt O60927 1-126, looked up)", "chain": "B3 chain with T29A, I30A, K31A", "notes": "PPP1R11), human, residues 1-126; also called I3_(1-126) 29AAA31; source: E. coli BL21 (DE3), purified (Ni-NTA, TEV, heat 95 °C, SEC); not shown: His6, N-terminal, cleaved; MBP, N-terminal, cleaved"}, "B11": {"name": "SILK_(dead): I3_(27-68) T29A/I30A/K31A (domain or fragment, human, UniProt O60927 27-68, looked up)", "chain": "SLAAALRKRKPEKKVEWTSDTVDNEHMGRRSSKCCCIYEKPR", "notes": "PPP1R11), human, residues 27-68; also called I3_(27-68) 29AAA31; source: E. coli BL21 (DE3), purified (Ni-NTA, TEV, heat 95 °C, SEC); not shown: His6, N-terminal, cleaved; MBP, N-terminal, cleaved"}, "B12": {"name": "SILK_(dead): I3_(27-68) T29A/I30A/K31A (domain or fragment, human, UniProt O60927 27-68, looked up)", "chain": "B11 chain", "notes": "PPP1R11), human, residues 27-68, T29A/I30A/K31A; also called I3_27-68_SLAAA; I3_(27-68) 29AAA31; source: E. coli BL21 (DE3), purified (Ni-NTA, TEV cleavage, heat, SEC); not shown: His6, N-terminal, cleaved; MBP, N-terminal, cleaved"}}, "key": {"PP1_7-330 [1]": {"biological_target": "T1, PP1_7-330 (Homo sapiens, UniProt P62136)", "T1 construct": "gene PPP1CA; His6-PP1α7-330, E. coli expressed, Mn2+ loaded", "T1 sequence (P62136 7-330)": "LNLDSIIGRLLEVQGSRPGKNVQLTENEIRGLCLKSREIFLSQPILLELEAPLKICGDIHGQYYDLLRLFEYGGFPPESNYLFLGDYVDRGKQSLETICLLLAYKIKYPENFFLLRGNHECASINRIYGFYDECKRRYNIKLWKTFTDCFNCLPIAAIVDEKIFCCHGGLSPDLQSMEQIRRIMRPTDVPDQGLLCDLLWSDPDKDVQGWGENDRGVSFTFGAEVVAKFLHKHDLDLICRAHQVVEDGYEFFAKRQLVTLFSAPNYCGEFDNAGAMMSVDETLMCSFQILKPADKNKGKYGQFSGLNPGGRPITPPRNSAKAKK", "protocol": "SPR measurements were performed using a 4-channel Reichert 4SPR instrument fitted with autosampler and a degassing pump (Reichert Technologies). SPR buffers containing 20 mM Tris pH 8.0, 500 mM NaCl, 1 mM MnCl2, 0.5 mM TCEP, 0.05% Tween-20 were prepared, sterile filtered, and degassed in autoclaved glassware prior to each experiment. Running buffer was used to prime and run both the sample and syringe pump reservoirs. Gold sensorchips modified with Ni-NTA-functionalized polycarboxylate (NiH[…]; XanTec Bioanalytics GmbH) were installed and equilibrated under flow conditions (100 μL/min) for ≥60 min at 25 °C. Surface contaminants were cleared from the chip surface by a pair of 120 μL injections of 2 M NaCl and 10 mM NaOH during the equilibration step. […] The sensorchip was allowed to equilibrate for 5 min at 50 μL/min prior to initiation of experiments. The concentrations of I3_1-126 and its variants ([…] and […]3_79-91) were measured using AccuOrange^TM Protein Quantification Kit (Biotium). For measurements, I3_1-126 and its variants were diluted into running buffer from concentrated stocks, and a series of injections at different I3 concentrations were applied. […] For all experiments, buffer blank injections were included at an interval of two sample injections to achieve double referencing. Technical replicates were obtained by utilizing three channels per chip coupled with stripping of the sensorchip with 350 mM EDTA pH 8.0, reconditioning the surface with 10 mM NaOH to remove non-specifically bound PP1 aggregates, charging the surface with 10 mM NiSO4, and reloading fresh PP1 onto the surface. All replicates were generated with freshly diluted PP1 and I3. Kinetic parameters were determined by curve-fitting using TraceDrawer software (Ridgeview Instruments AB) fit with a one-to-one one state or one-to-one two state model. Statistical analyses of SPR data were performed using Microsoft Excel."}, "PP1_7-330 [2]": {"biological_target": "T1, PP1_7-330", "details": "SD, n = 3"}, "His6-PP1α_(7-330) [3]": {"biological_target": "T2, His6-PP1α_(7-330) (UniProt P62136 7-330)", "T2 construct": "Protein Phosphatase 1 alpha (PP1α), residues 7-330; Captured by its His6 tag on the Ni-NTA chip for SPR; Two Mn2+ at the active site when made in E. coli with MnCl2; also called PP1_(7-330); Protein Phosphatase 1; source: bacterial expression (E. coli) as previously described, purified (Ni-NTA, SEC)", "T2 sequence (P62136 7-330)": "as above", "test": "SPR; His6-PP1 captured on a Ni-NTA sensorchip (NiHC200M), I3 variants injected; 25 °C; 20 mM Tris pH 8.0, 500 mM NaCl, 1 mM MnCl2, 0.5 mM TCEP, 0.05% Tween-20; one-to-one one state or one-to-one two state model", "details": "both partners purified"}, "PP1α_(7-330)": {"biological_target": "T3, PP1α_(7-330) (UniProt P62136 7-330)", "T3 construct": "Protein Phosphatase 1 alpha (PP1α), residues 7-330; His6-PP1 was captured on the Ni-NTA sensor chip as the SPR ligand; Mn2+ in all buffers; also called Protein Phosphatase 1; His6-PP1; source: E. coli, purified (Ni-NTA, SEC)", "T3 sequence (P62136 7-330)": "as above", "test": "SPR; His6-PP1 captured on Ni-NTA chip (NiHC200M), I3 variants injected; 25 °C; 20 mM Tris pH 8.0, 500 mM NaCl, 1 mM MnCl2, 0.5 mM TCEP, 0.05% Tween-20; one-to-one one state or one-to-one two state model (TraceDrawer)", "details": "both partners purified"}, "His6-PP1α_(7-330) [4]": {"biological_target": "T2, His6-PP1α_(7-330)", "test": "cell-based or functional assay"}}, "note": "Substitutions are numbered along the chain they refer to. Names and notes keep the numbering of the source. Values joined by “and” are separate entries in the source; they are usually repeats but may differ in a detail not shown here. Equal entries are not always repeated. Where two headings read alike, the source gives them in different places."}
{"molecule": "I3 1-126 C60S/C61S/C62S [SSS: I3_1-126 C60S/C61S/C62S]", "values": [{"measurement": "Kd", "setting": "PP1_7-330 [1]; n = 3", "value": "300 ± 23", "unit": "nM"}]}
{"molecule": "I3 1-126 with KVEW 40-43 mutated to KAEA [RVxFdead: I3_1-126 ^40KAEA^43]", "values": [{"measurement": "Kd", "setting": "PP1_7-330 [1]; n = 4", "value": "3460 ± 531", "unit": "nM"}]}
{"molecule": "human Inhibitor-3 (PPP1R11) full length, residues 1-126 [I3_1-126]", "values": [{"measurement": "Kd", "setting": "PP1_7-330 [1]; n = 3", "value": "15.7 ± 2", "unit": "nM"}, {"measurement": "IC50", "setting": "PP1_7-330 [2]", "value": "71 ± 6", "unit": "nM"}]}
{"molecule": "I3 1-126 T29A/I30A/K31A [SILKdead: I3_1-126 T29A/I30A/K31A]", "values": [{"measurement": "Kd", "setting": "PP1_7-330 [1]; n = 3", "value": "13.1 ± 2.8", "unit": "nM"}]}
{"molecule": "B1", "values": [{"measurement": "Kd", "setting": "His6-PP1α_(7-330) [3]", "value": "15.2 ± 2.5", "unit": "nM"}]}
{"molecule": "B2", "values": [{"measurement": "Kd", "setting": "PP1α_(7-330)", "value": "14.8 nM and 17.9 nM and 13 nM"}]}
{"molecule": "B3", "values": [{"measurement": "IC50 of PP1 inhibition (dephosphorylation of the H3pT3 peptide, released Pi)", "setting": "His6-PP1α_(7-330) [4]", "value": 71, "unit": "nM"}, {"measurement": "Kd", "setting": "His6-PP1α_(7-330) [3]", "value": "15.7 ± 2", "unit": "nM"}]}
{"molecule": "B4", "values": [{"measurement": "Kd", "setting": "PP1α_(7-330)", "value": "17.7 nM and 13.7 nM and 15.6 nM"}]}
{"molecule": "B5", "values": [{"measurement": "Kd", "setting": "PP1α_(7-330)", "value": "16.3 nM and 11.9 nM and 11.2 nM"}]}
{"molecule": "B6", "values": [{"measurement": "Kd", "setting": "PP1α_(7-330)", "value": "295 nM and 330 nM and 287 nM and 304 nM"}, {"measurement": "koff", "setting": "PP1α_(7-330)", "value": "0.0957 s⁻¹ and 0.103 s⁻¹ and 0.093 s⁻¹ and 0.0972 s⁻¹"}, {"measurement": "kon", "setting": "PP1α_(7-330)", "value": "325000 M⁻¹ s⁻¹ and 313000 M⁻¹ s⁻¹ and 321000 M⁻¹ s⁻¹"}]}
{"molecule": "B7", "values": [{"measurement": "Kd", "setting": "PP1α_(7-330)", "value": "3390 nM and 3260 nM and 2970 nM and 4210 nM"}]}
{"molecule": "B8", "values": [{"measurement": "Kd", "setting": "His6-PP1α_(7-330) [3]", "value": "3460 ± 531", "unit": "nM"}]}
{"molecule": "B9", "values": [{"measurement": "Kd", "setting": "His6-PP1α_(7-330) [3]", "value": "300 ± 23", "unit": "nM"}]}
{"molecule": "B10", "values": [{"measurement": "Kd", "setting": "His6-PP1α_(7-330) [3]", "value": "13.1 ± 2.8", "unit": "nM"}]}
{"molecule": "B11", "values": [{"measurement": "Kd", "setting": "His6-PP1α_(7-330) [3]", "value": "16.8 ± 2.8", "unit": "nM"}]}
{"molecule": "B12", "values": [{"measurement": "Kd", "setting": "PP1α_(7-330)", "value": "13.5 nM and 18.2 nM and 18.6 nM"}]}
